The target in data set [1] is T1, OPR3 (12-oxophytodienoic acid reductase 3) (Arabidopsis thaliana, UniProt Q9FUP0). In words: intrinsic Trp fluorescence quenching. The format is binding. As to conditions: 0.75 µmol/L OPR3, 40 mmol/L KPi pH 7.2, 25°C.
The target in data set [2] is T1, OPR3 (12-oxophytodienoic acid reductase 3). The note with it: NADPH co-substrate, 40 mmol/L KPi pH 7.2, 25°C, aerobic.
For data set [3], the system named is O=C1C=CCC1. In words: purified protein. The note with it: pH 7.2; 25.0 °C.
Data set [4] relates to [O]C1=C(O)[C@@H]([C@@H](O)CO)OC1=O. The data set is described as follows: purified protein. As to conditions: pH 7.8.
The subject of data set [5] is CC/C=C\C[C@@H]1C(=O)C=C[C@@H]1CCCCCCCC(=O)O. The data set is described as follows: purified protein. As to conditions: pH 7.2; 25.0 °C.

As usually defined, the Km is the substrate concentration at which the rate is half of its maximum.

T1 sequence (Q9FUP0 whole entry): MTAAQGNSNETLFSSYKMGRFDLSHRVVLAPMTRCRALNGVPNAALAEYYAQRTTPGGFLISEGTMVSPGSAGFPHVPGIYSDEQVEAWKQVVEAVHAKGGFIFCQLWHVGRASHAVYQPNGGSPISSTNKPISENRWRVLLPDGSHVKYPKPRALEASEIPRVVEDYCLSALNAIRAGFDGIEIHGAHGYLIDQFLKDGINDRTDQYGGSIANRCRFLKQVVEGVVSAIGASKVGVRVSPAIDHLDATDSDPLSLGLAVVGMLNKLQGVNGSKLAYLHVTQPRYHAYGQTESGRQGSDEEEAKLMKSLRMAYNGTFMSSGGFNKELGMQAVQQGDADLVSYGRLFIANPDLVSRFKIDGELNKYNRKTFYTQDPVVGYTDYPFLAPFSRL

Consider `CC/C=C\C[C@@H]1C(=O)C=C[C@@H]1CCCCCCCC(=O)O` [12-OPDA], for which the “% quenching at 607 μmol/L” value in data set [1] came to 54.0±0.4%. For the compound `C=CC(C)=O` [MVK], in data set [2], the Michaelis constant (Km) amounted to 38.5 ± 14 µM. Take “OPR3 (12-oxophytodienoic acid reductase 3) (Arabidopsis thaliana)”: the Km in data set [3] is 1967 ± 825 µM; in data set [4], 1 µM; in data set [5], 28.3 ± 8.5 µM.

For the origin of these results see paper doi:10.1101/820381v1 (biorxiv, 2019).
